From paper PMC10808074, “Regulation of micro- and small-exon retention and other splicing processes by GRP20 for flower development”

T1: GRP20 (Arabidopsis thaliana, UniProt Q7DV38 1-153)
T1 sequence: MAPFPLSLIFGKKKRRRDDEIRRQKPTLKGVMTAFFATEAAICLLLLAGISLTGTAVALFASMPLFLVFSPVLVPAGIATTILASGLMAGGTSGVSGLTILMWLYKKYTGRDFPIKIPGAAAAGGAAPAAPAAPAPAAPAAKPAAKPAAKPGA

T2: GRP20ΔHDR (Arabidopsis thaliana, UniProt Q7DV38 1-118)
T2 sequence: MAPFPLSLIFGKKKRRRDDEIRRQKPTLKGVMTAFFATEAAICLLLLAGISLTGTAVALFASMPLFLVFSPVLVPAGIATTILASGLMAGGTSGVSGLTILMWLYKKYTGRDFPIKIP

T3: GRP20 (RBDm) (Arabidopsis thaliana, UniProt Q7DV38 1-153, M102A;W103A;Y105A;K106A;K107A)
T3 sequence: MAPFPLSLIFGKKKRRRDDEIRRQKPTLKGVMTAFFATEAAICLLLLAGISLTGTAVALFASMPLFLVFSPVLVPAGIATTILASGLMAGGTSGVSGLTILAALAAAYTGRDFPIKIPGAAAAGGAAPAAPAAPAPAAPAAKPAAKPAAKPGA

T4: GRP20ΔRBD (Arabidopsis thaliana, UniProt Q7DV38 1-153, del92-115)
T4 sequence: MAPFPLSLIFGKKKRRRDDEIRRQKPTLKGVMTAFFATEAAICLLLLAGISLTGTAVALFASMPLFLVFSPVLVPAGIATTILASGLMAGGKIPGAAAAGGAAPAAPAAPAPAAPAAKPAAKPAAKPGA


Experiments:
Assay in all cases: EMSA; Probes: 400 fmol RNA, 17 ug protein, 1x binding buffer (Molecular Probes E33075 kit), room temp 30 min, 5% native PAGE, SYBR Green; pre-mRNA: 500 ng RNA in 10 mM HEPES, 150 mM NaCl, 3 mM EDTA, 2 mM DTT, 10% glycerol, 1 mM PMSF, room temp 30 min; pH not stated
Conditions in all cases: protein: recombinant; tags: N-terminal His6-SUMO
GRP20 = molecular target: T1, GRP20
GRP20ΔHDR = molecular target: T2, GRP20ΔHDR
GRP20 (RBDm) = molecular target: T3, GRP20 (RBDm)
GRP20ΔRBD = molecular target: T4, GRP20ΔRBD

| Binder | binding result (GRP20) | binding result (GRP20ΔHDR) | binding result (GRP20 (RBDm)) | binding result (GRP20ΔRBD) |
| --- | --- | --- | --- | --- |
| AGGAGAAGGCC (ssRNA) [AP1-probe] | binds | – | – | – |
| UUGAUUAUGU (ssRNA) [P2 (ES_C2)] | binds | – | – | – |
| GAAGAAGAAGAAG (ssRNA) [P1 (GA-rich consensus ES_C1)] | binds | binds | no binding | no binding |
| AUAUAUCUUU (ssRNA) [P3 (A3SS)] | binds | – | – | – |
| AUGAUAAUGCC (ssRNA) [AP1m-probe] | no binding | – | – | – |
